To fix the notation:
B1: RRAS2 (wild type), P62070 F75A (protein)
chain: MAAAGWRDGSGQEKYRLVVVGGGGVGKSALTIQFIQSYFVTDYDPTIEDSYTKQCVIDDRAARLDILDTAGQEEAGAMREQYMRTGEGFLLVFSVTDRGSFEEIYKFQRQILRVKDRDEFPMILIGNKADLDHQRQVTQEEGQQLARQLKVTYMEASAKIRMNVDQAFHELVRVIRKFQ
B2: RRAS2 (wild type), P62070 E74A (protein)
chain: B1 chain with E74A, A75F
B3: RRAS2 (wild type), P62070 M78A (protein)
chain: B1 chain with A75F, M78A

These results are taken from paper PMC11718114.

Where a chain is given by its changes, count along the chain named. Numbers in names are those of the source.

The target of this experiment is PI3Kα-RBD (PIK3CA-RBD(157-289)), P42336. Description: ITC. Conditions: chain shown with the change;; parent: est. 8.0 µM; read off a plot.
Consider B1, for which the Kd was 21 µM.

Regarding B2, the Kd came to 12 µM. B3: the Kd was found to be 130 µM.

For orientation: Kd means the concentration at which binding is half-saturated.
